Data as given in US20230220042A1 (SHANGHAI JIAO TONG UNIVERSITY SCHOOL OF MEDICINE, published 2023).
Residue numbers refer to the chain shown, from its start. Names may count otherwise.

How the values were obtained:
FcγRIIA^131R (human) = FcγRIIA^131R (human) (UniProt P12318); assay: ELISA, coated antibody, biotin-FcγR;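 as to Absorbance value: antibody coated at 2 µg/mL at 100 µL per well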
Biotin-FcγRIIB [1] = biological target: T1, Biotin-FcγRIIB (human, UniProt P31994 43-217, limits assumed, biotin-labelled); assay: FACS sorting of displayed Fc library on biotin-FcγRIIB, NGS
T1 construct: Bought, biotin-labelled; used at 1 µg/ml for staining and sorting; also called human FcγRIIB; CD32b
T1 sequence (looked up): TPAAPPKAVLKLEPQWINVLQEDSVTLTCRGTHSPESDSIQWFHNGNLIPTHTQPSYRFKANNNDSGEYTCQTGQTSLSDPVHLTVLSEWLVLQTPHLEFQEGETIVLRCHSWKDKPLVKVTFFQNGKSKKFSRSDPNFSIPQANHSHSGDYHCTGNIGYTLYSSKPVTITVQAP

Biotin-FcγRIIB [2] = biological target: T1, Biotin-FcγRIIB; assay: FACS sorting of displayed Fc library on biotin-FcγRIIB, NGS; reference G327A
Biotin-FcγRIIB [3] = biological target: T1, Biotin-FcγRIIB; assay: FACS sorting of displayed Fc library on biotin-FcγRIIB, NGS; reference P271C
Biotin-FcγRIIB [4] = biological target: T1, Biotin-FcγRIIB; assay: FACS sorting of displayed Fc library on biotin-FcγRIIB, NGS; reference S267E
FcγRI = biological target: T2, FcγRI (human, UniProt P12314 16-292, biotin-labeled); assay: ELISA, coated antibody, biotin-FcγR;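 as to Absorbance value: antibody coated at 2 µg/mL at 100 µL per well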
T2 construct: extracellular domain; Bought protein; also called CD64

FcγRIIA^131H = biological target: T3, FcγRIIA^131H (human, UniProt P12318 34-217, biotin-labeled); assay: ELISA, coated antibody, biotin-FcγR;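 as to Absorbance value: antibody coated at 2 µg/mL at 100 µL per well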
T3 construct: extracellular domain; Bought protein; also called RIIAH
T3 sequence (looked up): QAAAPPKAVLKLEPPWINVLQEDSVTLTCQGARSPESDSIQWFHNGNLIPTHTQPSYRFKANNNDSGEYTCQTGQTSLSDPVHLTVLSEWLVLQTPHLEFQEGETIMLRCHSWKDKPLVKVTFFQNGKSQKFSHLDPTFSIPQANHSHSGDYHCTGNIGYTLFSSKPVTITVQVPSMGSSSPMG

FcγRIIB [5] = biological target: T4, FcγRIIB (human, UniProt P31994 43-217, biotin-labeled); assay: ELISA, coated antibody, biotin-FcγR;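 as to Absorbance value: antibody coated at 2 µg/mL at 100 µL per well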
T4 construct: extracellular domain; Bought protein; also called CD32b
T4 sequence (looked up): T1 sequence (looked up)

FcγRIIIA^158F = biological target: T5, FcγRIIIA^158F (human, UniProt P08637 17-208, biotin-labeled); assay: ELISA, coated antibody, biotin-FcγR;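 as to Absorbance value: antibody coated at 2 µg/mL at 100 µL per well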
T5 construct: extracellular domain; Bought protein; also called RIIIAF

FcγRIIIA^158V = biological target: T6, FcγRIIIA^158V (human, UniProt P08637 17-208, biotin-labeled); assay: ELISA, coated antibody, biotin-FcγR;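 as to Absorbance value: antibody coated at 2 µg/mL at 100 µL per well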
T6 construct: extracellular domain; Bought protein; also called RIIIAV; CD16a 158V

FcγRIIB [6] = biological target: T4, FcγRIIB; assay: ELISA; relative affinity to FcγRIIB over that to FcγRIIA131R

T2 sequence (P12314 16-292): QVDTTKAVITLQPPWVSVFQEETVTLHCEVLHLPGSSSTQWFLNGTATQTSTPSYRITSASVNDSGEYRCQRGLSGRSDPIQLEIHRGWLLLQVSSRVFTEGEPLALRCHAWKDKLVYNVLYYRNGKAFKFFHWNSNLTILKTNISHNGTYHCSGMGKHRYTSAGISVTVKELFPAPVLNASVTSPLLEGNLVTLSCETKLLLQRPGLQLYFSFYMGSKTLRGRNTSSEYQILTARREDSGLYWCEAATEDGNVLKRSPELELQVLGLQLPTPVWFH
T6 sequence (P08637 17-208 F176V): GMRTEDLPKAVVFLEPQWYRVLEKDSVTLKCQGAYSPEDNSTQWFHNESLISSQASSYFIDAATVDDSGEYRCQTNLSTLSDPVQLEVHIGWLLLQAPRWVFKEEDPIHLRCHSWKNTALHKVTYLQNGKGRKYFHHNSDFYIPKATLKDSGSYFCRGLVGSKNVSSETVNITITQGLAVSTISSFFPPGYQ
T5 sequence (P08637 17-208): as the sequence (P08637 17-208 F176V) above, with V160F counted along it

IgG2 N297A (antibody)
Absorbance value (FcγRIIA^131R (human)): 0.04 A650

B1: human IgG2 anti-mouse CD40 surface displayed antibody, Fc mutant G327A/A330R (antibody, name in EU numbering)
light chain (with the P2A rest): DTVLTQSPALAVSPGERVTISCRASDSVSTLMHWYQQKPGQQPKLLIYLASHLESGVPARFSGSGSGTDFTLTIDPVEADDTATYYCQQSWNDPWTFGGGTKLELKRTVAAPSVFIFPPSDEQLKSGTASVVCLLNNFYPREAKVQWKVDNALQSGNSQESVTEQDSKDSTYSLSSTLTLSKADYEKHKVYACEVTHQGLSSPVTKSFNRGECGSGATNFSLLKQAGDVEENPG
heavy chain: EVQLVESDGGLVQPGRSLKLPCAASGFTFSDYYMAWVRQAPTKGLEWVASISYDGSSTYYRDSVKGRFTISRDNAKSTLYLQMDSLRSEDTATYYCGRHSSYFDYWGQGVMVTVSSASTKGPSVFPLAPCSRSTSESTAALGCLVKDYFPEPVTVSWNSGALTSGVHTFPAVLQSSGLYSLSSVVTVPSSNFGTQTYTCNVDHKPSNTKVDKTVERKCCVECPPCPAPPVAGPSVFLFPPKPKDTLMISRTPEVTCVVVDVSHEDPEVQFNWYVDGVEVHNAKTKPREEQFNSTFRVVSVLTVVHQDWLNGKEYKCKVSNKALPRPIEKTISKTKGQPREPQVYTLPPSREEMTKNQVSLTCLVKGFYPSDIAVEWESNGQPENNYKTTPPMLDSDGSFFLYSKLTVDKSRWQQGNVFSCSVMHEALHNHYTQKSLSLSPGKLEPPPSTVSNMATVAVLVVLGAAIVTGAVVAFVMKMRRRNTGGKGGDYALAPGSQTSDLSLPDCKVMVHDPHSLA
notes: as m1; positions are Eu numbers; copies: 2 + 2
Enrichment factor (after/before sorting) (Biotin-FcγRIIB [1]): 98.3
Increased factor a (enrichment factor/wild-type enrichment factor) (Biotin-FcγRIIB [1]): 65.8
Increased factor 2 c Site 1 (combined/point mutation) (Biotin-FcγRIIB [2]): 19.5

B2: human IgG2 anti-mouse CD40 surface displayed antibody, Fc mutant S267E/P271C (antibody, name in EU numbering)
light chain (with the P2A rest): B1 light chain (with the P2A rest)
heavy chain: B1 heavy chain with S262E, P266C, A322G, R325A
notes: as for B1
Enrichment factor (after/before sorting) (Biotin-FcγRIIB [1]): 1000
Increased factor a (enrichment factor/wild-type enrichment factor) (Biotin-FcγRIIB [1]): 1740
Increased factor 2 c Site 2 (combined/point mutation) (Biotin-FcγRIIB [3]): 58.4
Increased factor 2 c Site 1 (combined/point mutation) (Biotin-FcγRIIB [4]): 61.2

B3: human IgG2 anti-mouse CD40 surface displayed antibody, Fc mutant S267E/P271Y (antibody, name in EU numbering)
light chain (with the P2A rest): B1 light chain (with the P2A rest)
heavy chain: B1 heavy chain with S262E, P266Y, A322G, R325A
notes: as for B1
Enrichment factor (after/before sorting) (Biotin-FcγRIIB [1]): 19.2
Increased factor a (enrichment factor/wild-type enrichment factor) (Biotin-FcγRIIB [1]): 33.4
Increased factor 2 c Site 1 (combined/point mutation) (Biotin-FcγRIIB [4]): 1.2

B4: human IgG2 anti-mouse CD40 surface displayed antibody, Fc mutant G327A/I332E (antibody, name in EU numbering)
light chain (with the P2A rest): B1 light chain (with the P2A rest)
heavy chain: B1 heavy chain with R325A, I327E
notes: as for B1
Enrichment factor (after/before sorting) (Biotin-FcγRIIB [1]): 126
Increased factor a (enrichment factor/wild-type enrichment factor) (Biotin-FcγRIIB [1]): 84.1
Increased factor 2 c Site 1 (combined/point mutation) (Biotin-FcγRIIB [2]): 24.9

B5: human IgG2 anti-mouse CD40 surface displayed antibody, Fc mutant S267A/P271C (antibody, name in EU numbering)
light chain (with the P2A rest): B1 light chain (with the P2A rest)
heavy chain: B1 heavy chain with S262A, P266C, A322G, R325A
notes: as for B1
Enrichment factor (after/before sorting) (Biotin-FcγRIIB [1]): 37.4
Increased factor a (enrichment factor/wild-type enrichment factor) (Biotin-FcγRIIB [1]): 65.1
Increased factor 2 c Site 2 (combined/point mutation) (Biotin-FcγRIIB [3]): 2.2

B6: human IgG2 anti-mouse CD40 surface displayed antibody, Fc mutant V266A/P271C (antibody, name in EU numbering)
light chain (with the P2A rest): B1 light chain (with the P2A rest)
heavy chain: B1 heavy chain with V261A, P266C, A322G, R325A
notes: as for B1
Enrichment factor (after/before sorting) (Biotin-FcγRIIB [1]): 42.2
Increased factor a (enrichment factor/wild-type enrichment factor) (Biotin-FcγRIIB [1]): 73.5
Increased factor 2 c Site 2 (combined/point mutation) (Biotin-FcγRIIB [3]): 2.5

B7: human IgG2 anti-mouse CD40 surface displayed antibody, Fc mutant G327A/I332A (antibody, name in EU numbering)
light chain (with the P2A rest): B1 light chain (with the P2A rest)
heavy chain: B1 heavy chain with R325A, I327A
notes: as for B1
Enrichment factor (after/before sorting) (Biotin-FcγRIIB [1]): 29.2
Increased factor a (enrichment factor/wild-type enrichment factor) (Biotin-FcγRIIB [1]): 19.5
Increased factor 2 c Site 1 (combined/point mutation) (Biotin-FcγRIIB [2]): 5.8

B8: human IgG2 anti-mouse CD40 surface displayed antibody, Fc mutant S267M/P271C (antibody, name in EU numbering)
light chain (with the P2A rest): B1 light chain (with the P2A rest)
heavy chain: B1 heavy chain with S262M, P266C, A322G, R325A
notes: as for B1
Enrichment factor (after/before sorting) (Biotin-FcγRIIB [1]): 32.1
Increased factor a (enrichment factor/wild-type enrichment factor) (Biotin-FcγRIIB [1]): 56
Increased factor 2 c Site 2 (combined/point mutation) (Biotin-FcγRIIB [3]): 1.9

B9: human IgG2 anti-mouse CD40 surface displayed antibody, Fc mutant G327A/A330V (antibody, name in EU numbering)
light chain (with the P2A rest): B1 light chain (with the P2A rest)
heavy chain: B1 heavy chain with R325V
notes: as for B1
Enrichment factor (after/before sorting) (Biotin-FcγRIIB [1]): 6.98
Increased factor a (enrichment factor/wild-type enrichment factor) (Biotin-FcγRIIB [1]): 4.67
Increased factor 2 c Site 1 (combined/point mutation) (Biotin-FcγRIIB [2]): 1.4

B10: human IgG2 anti-mouse CD40 surface displayed antibody, Fc mutant G327A/I332C (antibody, name in EU numbering)
light chain (with the P2A rest): B1 light chain (with the P2A rest)
heavy chain: B1 heavy chain with R325A, I327C
notes: as for B1
Enrichment factor (after/before sorting) (Biotin-FcγRIIB [1]): 11.4
Increased factor a (enrichment factor/wild-type enrichment factor) (Biotin-FcγRIIB [1]): 7.64
Increased factor 2 c Site 1 (combined/point mutation) (Biotin-FcγRIIB [2]): 2.3

B11: wild-type IgG2 anti-human OX40 antibody (antibody)
heavy: QVQLQESGPGLVKPSGTLSLTCAVSGGSISSSIWWSWVRQPPGKGLEWIGEIHHSGNTNCNPSLKSRVTISIDKSKNQFSLKLTSVTAADTAVYYCARAGTGTTLDYWGQGTLVTVSSASTKGPSVFPLAPCSRSTSESTAALGCLVKDYFPEPVTVSWNSGALTSGVHTFPAVLQSSGLYSLSSVVTVPSSNFGTQTYTCNVDHKPSNTKVDKTVERKCCVECPPCPAPPVAGPSVFLFPPKPKDTLMISRTPEVTCVVVDVSHEDPEVQFNWYVDGVEVHNAKTKPREEQFNSTFRVVSVLTVVHQDWLNGKEYKCKVSNKGLPAPIEKTISKTKGQPREPQVYTLPPSREEMTKNQVSLTCLVKGFYPSDIAVEWESNGQPENNYKTTPPMLDSDGSFFLYSKLTVDKSRWQQGNVFSCSVMHEALHNHYTQKSLSLSPGK
light: EIVLTQSPGTLSLSPGERATLSCRASQSVSGDYLAWYQQKLGQAPRLLIYGASIRATGIPDRFSGSGSGTDFTLTISKLEPEDFAVYYCQQYGSSPLTFGGGTKVEIKRTVAAPSVFIFPPSDEQLKSGTASVVCLLNNFYPREAKVQWKVDNALQSGNSQESVTEQDSKDSTYSLSSTLTLSKADYEKHKVYACEVTHQGLSSPVTKSFNRGEC
notes: also called WTIgG2
Absorbance value (FcγRIIA^131R (human)): 0.08 A650
Relative binding affinity RIIAR/G1 (FcγRIIA^131R (human)): 0.29
Absorbance value (FcγRI): 0.08 A650
Relative binding affinity RI/G1 (FcγRI): 0.03 ratio
Absorbance value (FcγRIIA^131H): 0.49 A650
Relative binding affinity RIIAH/G1 (FcγRIIA^131H): 0.85 ratio
Absorbance value (FcγRIIB [5]): 0.08 A650
Increased factor of RIIB binding compared with wild-type IgG2 (FcγRIIB [5]): 1 fold
Relative binding affinity RIIB/G1 (FcγRIIB [5]): 0.1 ratio
Absorbance value (FcγRIIIA^158F): 0.06 A650
Relative binding affinity RIIIAF/G1 (FcγRIIIA^158F): 0.3 ratio
Absorbance value (FcγRIIIA^158V): 0.05 A650
Relative binding affinity RIIIAV/G1 (FcγRIIIA^158V): 0.06 ratio
RIIB/RIIAR (FcγRIIB [6]): 0.34 ratio

B12: anti-human OX40 IgG2 antibody Mut_26 (V234Q/A235G/P238L/S239V/S267E/H268S/E269D) (antibody)
heavy: B11 heavy with V232Q, A233G, P235L, S236V, S264E, H265S, E266D
light: B11 light
notes: Substitutions in Eu numbering; entries include an unstated signal peptide
Absorbance value (FcγRIIA^131R (human)): 0.08 A650
Relative binding affinity RIIAR/G1 (FcγRIIA^131R (human)): 0.32
Absorbance value (FcγRI): 0.19 A650
Relative binding affinity RI/G1 (FcγRI): 0.07 ratio
Absorbance value (FcγRIIA^131H): 0.06 A650
Relative binding affinity RIIAH/G1 (FcγRIIA^131H): 0.11 ratio
Absorbance value (FcγRIIB [5]): 0.55 A650
Increased factor of RIIB binding compared with wild-type IgG2 (FcγRIIB [5]): 7.28 fold
Relative binding affinity RIIB/G1 (FcγRIIB [5]): 0.72 ratio
Absorbance value (FcγRIIIA^158F): 0.08 A650
Relative binding affinity RIIIAF/G1 (FcγRIIIA^158F): 0.41 ratio
Absorbance value (FcγRIIIA^158V): 0.09 A650
Relative binding affinity RIIIAV/G1 (FcγRIIIA^158V): 0.09 ratio
RIIB/RIIAR (FcγRIIB [6]): 2.24 ratio
